Measurements taken from the domain aggregation screens of Martell et al. (2025).

Experiment: soluble fraction after stress (log2 fold change); higher = more stays soluble; pooled small domains, quantitative proteomics
Settings: stress: 75 degC
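Further: 20 min heating vs room temperature control held 20 min.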

Sequence	soluble fraction (log2)
HMNSTGVYQRPDGFWEYRFTLSINGKKLPRRKSTDLMGNKLKTKREAIKAREEAIIALRTEKTI	-1.42
HMNSTVKVPNVVGMSVPQAKALLEQNHLLVQGIREVSTDKAPAGIVINQLPYSDAEVKEERHIYLTVSKGK	0.968
HMNSVKSPMPGTILGLKVSVGDTVKVGDELLVLESMKMENMINSPIDGTVSKILISEGDSVQHGQELII	0.238
HMNSVSARRSAAITAISTGRIHSQEDLVQALKKAGYPVTQATASRDIEEIGAVRIRNQKGEMVYAIS	0.208
HMNTEEITYSRFQQMLEAGEISQVSIESNRILILPSEETGIEKVLYTGIINDPGLVERLNSAGVEFRAPIE	-0.31
HMNTEFDVPDVVGKTLDEAEFVLKGSNLKRGLIMPVDDPSKAPGTIVRQNPEAGAGNKIRVGDVVDLWVVG	0.271
HMNTELSPKVWDVVQEFILYRKEIKAPMTEHAVKLLIGQLQKLSSDPDEQIEILRQSIVNGWKGIFSLK	-1.2
HMNTGTTISYSDFRDRVASGTVKEVQISDDRITGVLKNDETFNTVPVGNDSGLTKLLDDNGVTYSGTP	0.299
HMNTIFSVNGPVVKVKDTKDFSMMEMVYVGEKKLIGEVIGITESFTTIQVYEVTTGLKVGEPVYTTGAPM	-0.361
HMNTIIHPIRLAYVDSGSIKSMAEQAEIDVKILTSEANSQIFWAIGDEKQIDRLYNLISQVDIIQNK	-1.86
HMNTKHVFIIEQDDEKKRLDIFLVEKLQDSRSFLKKGIVEGWVKVNESVVKPNYKLKQKDQITVIIPP	-1.47
HMNTNDFTIGTRVRTTKKGNGSSDGTSNTARSGIEGTITRIIPEAKYPYLVSTTVPMGWYKKDALEK	0.00349
HMNTPLYLKIREQIFDALRSGRWAANDPLPSETKLASEFEVSQGTIRKAIDDLVAQNILYRHQGRGTFIRR	-1.21
HMNTSSVTVHYQDEAGKSLADTVTLTGKVGETYSSEQKKITGYNFKEVRGNPKGQFTTEAQTVTYVYTQAA	0.211
HMNTWVEIFRAEDQGQIRDASLVLLAVKVAHRVDMNSSSAPWSLMVPAQDQQRAHHELTTYWQENAH	-2.03
HMNVAELIEGHEAEIAEVLKEFSLLYLMRLADELGEMTKSSSGNGPFQVLKGLVYEEIARRG	-1.65
HMNVAVPTPADKRKVRVMKADINAKLRVNDANGAYAVYEELKEWVTLKGFTEWNDDLSKLSETMGSMKRKV	-0.601
HMNVDALVGQRGRVTQTFDPGLRLGRVAVGGDDWRAETTTDQPLREGDLVEVVSVESNTLIVRPIA	0.0567
HMNVDSLIGQTARVIVDINNNDSIGYALVGGQEWTARAENDNDIIPKDTLVEIVGVSGVKLIVRRKE	0.0563
HMNVDSLVGSEARVTAEIDNRKETGTAMVNGQEWTARAESDEEIYPVGTIVEIRKIQGVKLIVSTH	-0.394
HMNVEATAETLLALLKKNGGSLPFGDKSDPEAIQSQLKMSKKTFKKAAGTLFKKKLVRIEDHGIFL	-2.02
HMNVEGEVVVPNVIGRTMKDVAVILSDLGLRMEAEGTGVAKSSQPQHGTSVKRGTVVQVRFEPLSVN	0.648
HMNVEKLREMYPEGTKIILQEMQGESRMAKGLKGTVTHVDDAGQIHMKWENGSSLVLNVEVDTFKKIE	0.0771
HMNVEVDSIGDDDFLVKVSAGTSTEHRVTLTDAYWEQIWSSSLPKKEIISLSFAFLLEREPNSSIMRT	0.161
HMNVNALIGQEGIVIKEINSGSNKIGQVKISGDTWSAVTTNDFTNAIPVGSNVKILKIDGVNLIVEPVY	-0.255
HMNVNVSFTQLRHKAEHAIQAKNWSEARNLLTLATLMRPTHRNVARRLKAVEQRNRLFRRLLLILTHRKV	-0.429

Sequence	soluble fraction (log2)
HMNVPFGFDEVNGKLVKNEEEQAIISEIKSLKNKGLSLRKIAEALNGRGIATKNGKAWTAVQIQRIA	-0.318
HMNVPLYIMIESAVEQRLLDGTYQVGKMIPTEFELMDEFSVSRETVRKAINLLVQRGKLEKKRGIGTFVAS	-3.28
HMNVSDIENKLNEMLSPLEKKVMVLYLEGKSYVEIGELLGRHTKSVDNALQRVKRKLEIYLKNRK	-2.62
HMNVTIGESIKNVINHYGTPIYSYNPNNQEKYYEFHTNKGVLVVTAIGKKNTGYVTRVSMTY	-1.04
HMNVVDTGTDANYRVKISAVNLNMRLGPSTSYKSKGYITPGNYTIIKTSGDWGKVKETGYWVALKYTSKIN	-3.16
HMNVVINNELVSLMVEAMKDGVSSKSIQEEFEGYKISGKTITKKVLTAHVNKALEVFADMQE	-0.582
HMNYDPEEKITQIRTMLEIHSRIEFNEIITPATRRGEIIIIFLALLHMIKRGYIVVRQHRLFGDITIFARD	0.0974
HMNYKDQISRYFQQAFHIYPKYQTMKNEEGNFTSKIFKDDKMIIEGVGKSKKKAEQDVSRKALIHFNVL	-0.376
HMNYKNAIGQVGSVYVPIPPNREGLGQIEVKVQSRVSTVRAVSDHSERLENRVAVRVIELVDDRTLLVEKL	-1.15
HMNYTSEDIKLASELFFHLLNNRILPANDVLASQYYDNNEIREILENMAEEGGLRIFGTRENLHLVSNGE	0.00512
HMNYYDLLGIPKSATKQQIRKAYRTKAKEFHPDVNGPFNSHMHFLLLKQAYETLMDANMRHVYDMALIS	-2.4
HMPADHYEVLGIARDADAAEVKRAYRRLARESHPDANHGDSGAEVRFKAVSAAYEVLSDPERRARYDRFGH	0.0495
HMPANVELLRTFTNKTGTKIKARIVAVSDNKVKLIRDDSKKFIVPIDSLSEEDQKYLKDWIANEVGEQ	-0.16
HMPARTANEEAIRKYLLNHDSITRKETQALLKTGQSAAGRILKEMVENGWLARIGNGRSTGYELR	-0.222
HMPATIEGIRLYLSSGLIKGVGEEMASRIVKAFGTDTIRVLDEEPERLLKVRGVGKKSLDRIRTSWAEH	-0.366
HMPATPDATVQAVQQRLNELGYDVGSADGLMGRGTRSAIIAFQQDRGLAATGVADQALLLQLQP	0.105
HMPAWKINQELQATVIATKANQTRLRIEGQTFETQTAIALKPGQSLLIKVVSLEPQISFALI	-2.45
HMPDFLAELAARMERDAVTEAQIRQVVAQKGHYPEEVSPAQYHPDFFRQWLFPHWEKIVDVIRSSPEYTP	-0.126
HMPDGTATATASVNVRSGASTLSPVLGVLRVGESIGVTGQANGGWVPVNYNGRAGYVYAAYLSFD	-0.915
HMPDKIDSAAQGILDKLIRNDGFMAVTDKSPPEAIYKLFGVSKKVFKQAIGSLYKNRLITIEDAGLRIIPQ	-0.481
HMPDLKIGKDHRLAEYIETKIAEDGYSPGAVLGEIKAKGLEFETEISKPTLYSYIDKGIFLTITNKELPV	0.25
HMPDLQKAIDDLLQVVDKRLNTSFESILNEVNSEKEAVAFFLALLEAVRWGFVKASQSDEGIKIEK	0.211
HMPDLSAEERNIVEALQKSNDLQVNLIAVKTGMDMGTLSATLFGLEMKGLVKLMAGGTYHLI	-1.11
HMPDLSEDEEKIVSLLRDNNDLNVNIIVMRTQLPSATVTSSLFSLELKGVVRMYAGGMYHLM	-3.73
HMPDLSYVDEVLNRYKGHKGTLITVLQQVQAHKGYLEKEALERVARSMGVPTARIYGVVTFYAQFR	0.138
HMPDPVHAAYLRLAVLLTEQAIGPQVTEQQIRDRFALTRRQTSDLMGRLIREGIAEKRAGYGWNINTELTA	-1.16

Sequence	soluble fraction (log2)
HMPDVAIMNVSVEPEKKVVRLQVKAISLEALLDFSTRLEAIPARVELQNHTPSKELSQKWAVNATLIVIY	0.482
HMPDYYAILEVERTADAKTIKAAYRKLALAYHPDRNPGDQAAEERFKQINEAYAVLSDPEKRARYDRYGSV	-0.131
HMPEFKDMLKFFRMREHLSQSELAEKLGISASTVSMYEVGRRQPDFETEEKIADFFNTDLNTLRG	-0.693
HMPEGTYLEKLAIENNNLQLIGLSREASQLVQLLQDAPQWRKVNLTGVLQADGAASGRDRFTMTAELQ	0.0999
HMPEKNQITHLIRLIDDRDEFVRKRVREQLIKLGEDAIPFLEMAAKTENLEIQRIASEIIQAIIPRQ	-0.745
HMPELPPHELLRALMVEHDIKQSELPEVGPQPVVSDVLAGKRALNLRQVAALAARFHVPMEVFT	-0.161
HMPELSITDADIIVAGGRGMGSAENFGLIRELAGLLGAAVGASRVVVDAEWVDQKHLIGQTGK	-0.0455
HMPELTASDEADLKALVGGDQGFEQMANWARSNLGEEEINRFDAVVDSNNKDAIHMAIQAMQARMNA	-0.107
HMPELTERELEVLLLTARGLPSSEAARLLFITRRTVAAHLTSIYGKLGARNKTEAVLAALKRGIIMLDQIG	-3.99
HMPESYFEMLQKLLETYALPQEGTIYFSAADLARMPQKFEDVIEQTAQKKGGHLVVSKEPKDMDGGFVLV	-1.83
HMPEVAHTIDMEAVNKHWDELPEREQRILVMRFYGNLTQTEIGERLGISQMHVSRLLARALSHLKSRLLD	-3.89
HMPEVYPFEVAEDDAGKRLDVFLSEEIEEFTRSFIQKLIAGGLASVNRAPARASYRVKPRDLVELQVPE	-0.598
HMPFNREYWIEQLLKEVGLMGTPYAELDKHEVELDSPTGRASGFKVNAKTYVDQQLLFIENEYNNQPE	-0.533
HMPFREGDEVFVELVEPHMYNEDDAVAKLDGYVVAVRGAAGLVGQKVLVRIERVGRSSAEATLVA	-0.0609
HMPGEIKKIPINSISYQDLKQHPYFDAYLAKQVIKYRETKGRIENIEQFREATRAYQSLIEKVTPYLDFE	-0.302
HMPGGLSAEDVEKMVEKVLTVNGDVVEEIRSGRDPKGKKIKFLAGLVMRDARGQADAAAVSGILERRLKEG	0.0256
HMPGLITLEAAKTTALNHAKLTADQVTFVKQKLDRDDGRQVYEIEFYTSDYKEYDYEIDAVSGLILEVDYD	-0.866
HMPGLPLWAFSTRGSAIHTGASFRDGDGLLFGPESRGLPDWLLEEVGQDRVLRLPMRPGSRSLNLSNAV	-0.577
HMPGPAEMPGWITARAKKLGGQITPEAARALAAEMGSDTEQASREIEKLLTYVDYRRPVEEEDVALLTA	0.16
HMPGRKTTFEERLSIIEDLIKHDVNYSWAVDKYHVSYQQVYGWYQKYRKSGNDPQSLRDRRGK	-3.65
HMPGRPSRISDAVKDQIDHDLRKNPRDLGYSQNLWDGKLLSHHLKERYQITLGIRQAQRLFHQLGFRQR	-0.846
HMPGVLEVDTGGVAAVAYVDGVEVGRVPGELQIAAGTKTLMLKADRYLDYVQSLEIDGLGKRQLLVATLQS	-0.0797
HMPGVTTQLHRLNGTEETYIIKRGDGVLEIDGEKSELQLGDAIIIPAGASQKISNIGDEDLE	-0.159
HMPHFFISTSDVNQDIITVSDKENFHHIARVLRSKVGETLLLVDENRTQYKVVIQNIDSKSITTKVVETLK	-0.925
